From US20210255174

Test system: SNAPtide (FITC/DABCYL), List Biological Laboratories product #521

## BoNT/A complex (intact BoNT/A toxin complex, Metabiologics)
  Km of SNAPtide hydrolysis, bead-immobilized BoNT/A (bead based ALISSA): bead based ALISSA: typical Km=0.2 µM
  Km of SNAPtide hydrolysis, free BoNT/A (non-bead based assay): non-bead based assay: typical Km=0.7 µM
